Measured values published in US20210009671A1 (AstraZeneca / MedImmune, published 2021).

Legend:
[1] = biological target: Recombinant human NGF (Sigma) (human, UniProt P01138 122-241, limits assumed); test: cell-based or functional assay
[2] = biological target: Recombinant mouse NGF (R&D Systems) (mouse, UniProt P01139 122-241); test: cell-based or functional assay
Recombinant mouse NGF (R&D Systems), sequence (P01139 122-241 limits assumed): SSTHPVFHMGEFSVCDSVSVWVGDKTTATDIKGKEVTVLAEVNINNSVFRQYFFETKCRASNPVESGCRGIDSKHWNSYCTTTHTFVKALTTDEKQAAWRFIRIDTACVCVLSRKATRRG

Recombinant human NGF (Sigma), sequence (P01138 122-241 limits assumed): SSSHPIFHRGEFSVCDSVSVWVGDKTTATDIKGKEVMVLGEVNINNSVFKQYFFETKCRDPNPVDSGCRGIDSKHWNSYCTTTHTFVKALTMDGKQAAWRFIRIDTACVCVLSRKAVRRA

B1: MEDI-578 IgG1 TM YTE (antibody, V domains shown)
VH: QVQLVQSGAEVKKPGSSVKVSCKASGGTFSTYGISWVRQAPGQGLEWMGGIIPIFDTGNSAQSFQGRVTITADESTSTAYMELSSLRSEDTAVYYCARSSRIYDLNPSLTAYYDMDVWGQGTMVTVSS
VL: QSVLTQPPSVSAAPGQKVTISCSGSSSNIGNNYVSWYQQLPGTAPKLLIYDNNKRPSGIPDRFSGSKSGTSATLGITGLQTGDEADYYCGTWDSSLSAWVFGGGTKLTVL
[1]
  IC50 (read off the curve), human NGF-induced TF-1 proliferation: ~0.7 nM
[2]
  IC50 (read off the curve), murine NGF-induced TF-1 proliferation: ~0.3 nM
